Here are results for three compounds from patent publication US20110300147A9, “Inhibiting tumor cell invasion, metastasis and angiogenesis” (The Scripps Research institute, priority 2005, published 2011).

In general, pEC50 refers to the EC50 on a negative log10 scale, so that one unit is a factor of ten. A higher pEC50 goes with a low EC50. Broadly, the LD50 is the dose at which mortality reaches 50%. A higher LD50 goes with lower toxicity.

pEC50: −log10 of the molar value. Like-named read-outs stand apart in the source and are kept apart here. Numbered stars: 1 amine (or outer) side, 2 acyl side, 3 side chain; on linkers, the order of the positions; unused ones are H or OH. Peptide text beside a SMILES is read from it. * marks the point of attachment. Doxorubicin(3'-N) = COc1cccc2c1C(=O)c1c(O)c3c(c(O)c1C2=O)C[C@@](O)(C(=O)CO)C[C@@H]3O[C@H]1C[C@H](N*)[C@H](O)[C@H](C)O1; Suc = O=C(CCC(=O)[*:2])[*:1] Where only a bound is given, the exact number is not on record here.

For one data set, the system named is legumain+ 293 cells. Nature of the data set: WST-1 cytotoxicity assay, legumain+ 293 cells. Here is the method: (§1) Cytotoxic assays. The WST-1 cell proliferation reagent (Roche Molecular Chemicals, Germany) was used to determine cell proliferation by quantification of cellular metabolic activity. Control 293 cells and legumain+ 293 cells were cultivated in microtiter plates (5×10^3 cells per well in 100 μl) and were incubated with serial concentrations of legubicin or doxorubicin for 48 h. Subsequently, 10 μl of WST-1 solution (1 mg/ml WST-1, 25 μM -methyldibenzopyrazine methyl sulfate) was added per well, and mixtures were incubated for an additional 4 h. The tetrazolium salt WST-1 (4-[3-(4-lodophenyl)-2-(4-nitrophenyl)-2H-5-tetrazolio-1,3-benzene disfonate) was cleaved by the mitochondrial succinate-tetrazolium-reductase system to formazan in cells which directly correlates to the number of metabolically viable cells in the culture. The amount of formazan salt was quantified in three replicates by absorbance at 450 nm using a micro-plate reader (Molecular Devices, Palo Alto, Calif.).
(§2) Cytotoxicity assays. The WST-1 cell proliferation reagent (Roche Molecular Chemicals, Germany) was used to determine cell proliferation by quantization of cellular metabolic activity. […] The amount of formazan salt was quantified in three replicates by absorbance at 450 nm using a micro-plate reader (Molecular Devices, Palo Alto, Calif.).
On the technique in general: Formazan colour is commonly taken as a measure of viable cells.

The nature of data set [1]: gross toxicity (weight loss, death) of treated mice. Type of data set: in vivo. Here is the method: Tumor growth and signs of physical discomfort were monitored daily. Such signs included any gross evidence of tumor necrosis, local tumor ulceration as well as evidence of toxicity including changes in the animal's mobility, response to stimulus, piloerection, eating, and weight. These procedures have been reviewed and approved by the Institutional Animal Care and Use Committee at The Scripps Research Institute. All the experiments were conducted in The Scripps Research Institute facilities which are accredited by the Association for the Assessment and Accreditation of Laboratory Animal Care. The Scripps Research Institute maintains an assurance with the Public Health Service, and is registered with the United States Department of Agriculture and is in compliance with all regulations relating to animal care and welfare.

Data set [2] relates to control 293 cells. The data set can be described thus: WST-1 cytotoxicity assay, control 293 cells. The conditions noted are these: Homo sapiens, HEK293, 48 h. Here is the method: as §1, §2
Data set [3] deals with control 293 cells. The data set can be described thus: Dox and LEG-3 uptake assay, cells not expressing legumain. Here is the method: Dox and LEG-3 uptake assay. Legumain^+ 293 cells or control 293 cells (2.5×10^5 cells/well) were seeded in six-well plates. The culture plates were then incubated for 24 h at 37° C. and 5% CO2, and the medium in each well was replaced with 2 ml of serum-free, antibiotic-free medium containing various concentrations of Dox or LEG-type prodrug compounds. The cells were incubated 1.5 h then washed three times with 2 ml of cold PBS. At this point, cell nuclear positivity for Dox could be analyzed by fluorescent microscopy. For quantitative assays the cells were then lysed by adding 0.5 ml of water and gently rotated on an orbital shaker for 5 min at room temperature. The lysed cells were added to 1.5 ml acidified ethanol, and incubated at 4° C. in the dark for 3 h. Total Dox and LEG content was measured fluorometrically using a Perkin-Elmer LS-50-B spectrofluorometer (excitation: 470 nm; emission: 590 nm). Fluorescence intensity was translated to drug concentration by use of a standard curve prepared from Dox and LEG solutions in cell lysates that were not previously exposed to the drug. Results are expressed as the mean±SD of at least three replicates for each experiment.

The conditions of data set [4]: mouse, in vivo, iv.
For a further data set, the system named is HTP cells. Nature of the data set: WST-1 cytotoxicity assay, HTP cells. The conditions noted are these: 50% cell death, 48 h. Type of data set: cell-based.
The test system of another data set is cardiac myocytes. Conditions: for apoptosis of cardiac myocytes (TUNEL): treated mice.
Data set [5] has as its system CT26 murine colon carcinoma. Nature of the data set: CT26 syngeneic murine colon carcinoma model. The format is in vivo, Balb/c mice. An excerpt:
Animal models. […] Balb/C mice aged 4 to 6 weeks from the breeding colony were inoculated with 500,000 syngeneic CT26 tumor cells per site subcutaneously in the back. […] Treatment was repeated at 2 day intervals. The human 293 tumor models were generated in WEHI nude mice (The Scripps Research Institute breeding colony). […] Tumor growth and physical signs were monitored daily including any gross evidence of tumor necrosis, local tumor ulceration as well as evidence of toxicity including mobility, response to stimulus, eating, and weight of each animal. These procedures have been reviewed and approved by the Institutional Animal Care and Use Committee at The Scripps Research Institute. The work was conducted in The Scripps Research Institute facilities which are accredited by the Association for the Assessment and Accreditation of Laboratory Animal Care. The Scripps Research Institute maintains an assurance with the Public Health Service, is registered with the United States Department of Agriculture and is in compliance with all regulations relating to animal care and welfare.
Animal models. […] Treatment was three times per week for two weeks.

A short description of the next data set: in vivo. Also noted: species or system Balb/c male mice. Conditions: male, Balb/c, mouse.
Data set [6] is described as follows: plasma pharmacokinetics in mice bearing CT26 tumors. The conditions noted are these: single intravenous bolus, MTD of Dox and molar equivalent of LEG-3, CT26 tumor mice.
The nature of data set [7]: tissue distribution in mice bearing CT26 colon carcinomas. Type of data set: in vivo. The conditions noted are these: twelve hours post injection. Here is the method:
Tissue distribution. LEG compounds or Dox was injected i.p. into mice, 12 h later the animals were perfused and the Dox autofluorescence was measured following homogenization in 50% ethanol and then diluted with an equal volume of 50% ethanol containing 0.6 M HCl. Fluorescence measurements were obtained with excitation at 470 nm and emission at 590 nm, concentrations were derived by conversion from a Dox standard curve. Tissues from saline injected mice provided controls. Blood samples were to 0.75 ml with PBS, centrifuged, the pellets washed with PBS and Dox extracted with ethanol, 0.3 M HCl.
Legumain is selectively functional in the tumor microenvironment.

The test system of data set [8] is peripheral blood leukocytes. Nature of the data set: marrow toxicity, peripheral blood leukocyte counts. Conditions: six times in twelve days. The format is in vivo, Balb C mice. Here is the method: Determination of marrow toxicity. […] On day 7, retro-orbital sinus blood samples were collected into 10 mM EDTA, and counted by hemocytometer after lysis of red blood cells with an acidified methyl violet solution.

Data set [9] relates to legumain expressing cells. Nature of the data set: Dox and LEG-3 uptake assay, legumain expressing cells. Type of data set: cell-based, human. The conditions noted are these: legumain expressing cells in culture. An excerpt: Dox and LEG-3 uptake assay.
A further data set concerns the target legumain (Homo sapiens, UniProt Q99538). The data set can be described thus: cleavage of LEG compounds by legumain. The format is biochemical.

Sequence of legumain (Q99538 18-323, species assumed): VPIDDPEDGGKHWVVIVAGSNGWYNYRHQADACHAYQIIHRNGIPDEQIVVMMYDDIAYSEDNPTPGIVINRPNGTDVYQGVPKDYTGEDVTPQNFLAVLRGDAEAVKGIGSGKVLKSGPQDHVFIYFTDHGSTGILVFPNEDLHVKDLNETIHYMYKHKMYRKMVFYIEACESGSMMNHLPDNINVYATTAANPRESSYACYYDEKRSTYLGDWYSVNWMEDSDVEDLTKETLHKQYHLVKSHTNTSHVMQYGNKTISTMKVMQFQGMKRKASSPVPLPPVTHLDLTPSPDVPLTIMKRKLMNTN
Procedure for HTP cells: Cytotoxicity assays. The WST-1 cell proliferation reagent (Roche Molecular Chemicals, Germany) was used to determine cell proliferation by quantization of cellular metabolic activity. […] Subsequently, 10 μl of WST-1 solution (1 mg/ml WST-1, 25 μM -methyldibenzopyrazine methyl sulfate) was added per well, and mixtures were incubated for an additional 4 h. The tetrazolium salt WST-1 (4-[3-(4-Iodophenyl)-2-(4-nitrophenyl)-2H-5-tetrazolio-1,3-benzene disfonate) was cleaved by the mitochondrial succinate-tetrazolium-reductase system to formazan in cells in direct correlation with the number of metabolically viable cells in the culture. The amount of formazan salt was quantified in three replicates by absorbance at 450 nm using a micro-plate reader (Molecular Devices, Palo Alto, Calif.). All results were derived from replicate experiments with similar results.

As for `COc1cccc2c1C(=O)c1c(O)c3c(c(O)c1C2=O)C[C@@](O)(C(=O)CO)C[C@@H]3O[C@H]1C[C@H](N)[C@H](O)[C@H](C)O1` [Dox, doxorubicin, reference compound], in the data set on legumain+ 293 cells, the “cytotoxic effect on legumain+ 293 cells” value is listed as “only slightly more resistant”. For the same compound, the “Average weight loss (%)” value worked out at 24% in data set [1] (Dose 1.72 μmol/kg) and 28% in data set [1] (Dose 5.4 μmol/kg). In addition, the results for the “Death (%)” value in [1] (Dose 1.72 μmol/kg) and in data set [1] (Dose 5.4 μmol/kg) were 35% and 75%, respectively. The figures for the pEC50 in the data set on control 293 cells [2] and in the data set with HTP cells were 5.92 and 5.82, respectively. The cell uptake result with control 293 cells [3] is recorded as “rapidly entered cells”. In data set [4], the “decline of plasma concentration” value is “very rapidly declined”. Also, the “apoptosis of cardiac myocytes (TUNEL)” value with cardiac myocytes is listed as “marked apoptosis”. Moreover, the anti-tumor efficacy entry in data set [5] (doses approaching its maximum tolerable dose (MTD)) is reported as “failed to produce similar anti-tumor efficacy”. For the same compound, the toxicity result in data set [5] (i.p. 5 mg/kg three times at 2 day intervals) is recorded as “fatal”. The LD50 was determined as 17.2 µmol/kg in “in vivo” (ip) and 25.8 µmol/kg in the data set “in vivo” (iv). Also, the figures for the MTD in “in vivo” (ip) and in “in vivo” (iv) were 9.8 µmol/kg and 18.2 µmol/kg, respectively. The LD50 at 5 days is 3.4 µmol/kg in “in vivo” (ip, i.p. 5×) and 5.1 µmol/kg in the data set “in vivo” (iv, i.v. 5×). The MTD at 5 days in “in vivo” (ip, i.p. 5×) turned out to be 2.8 µmol/kg; in the data set “in vivo” (iv, i.v. 5×), 3.2 µmol/kg.

Consider `COc1cccc2c1C(=O)c1c(O)c3c(c(O)c1C2=O)C[C@@](O)(C(=O)CO)C[C@@H]3O[C@H]1C[C@H](NC(=O)[C@H](CC(C)C)NC(=O)[C@H](CC(N)=O)NC(=O)[C@H](C)NC(=O)[C@H](C)NC(=O)CCC(=O)O)[C@H](O)[C@H](C)O1` [LEG-3] (Suc-AANL-{Doxorubicin(3'-N)}), for which the “decline of plasma concentration” value in [6] was “much slower”. The “Average weight loss (%)” value in [1] (Dose 1.97 μmol/kg) amounted to 3%; in data set [1] (Dose 4.9 μmol/kg), 5%; in data set [1] (Dose 49.4 μmol/kg), 7%; in data set [1] (Dose 98.7 μmol/kg), 8%; in data set [1] (Dose 197.4 μmol/kg) it was 16%. Moreover, the “Death (%)” value turned out to be 0% in data set [1] (Dose 1.97 μmol/kg); 0% in data set [1] (Dose 4.9 μmol/kg); 0% in data set [1] (Dose 49.4 μmol/kg); 10% in data set [1] (Dose 98.7 μmol/kg); 50% in [1] (Dose 197.4 μmol/kg). The “toxicity based on weight loss and mortality” value in data set [1] (xenograft bearing mice (FIG. 13E)) is on record as “negligible”. The results for the cell uptake entry (in the data set on control 293 cells [3] (cell cultures not expressing legumain); in [9]) were “remained extracellular” and “the end product Dox was found in cells”, respectively. Further, the “concentrations in cardiac, liver, kidney, spleen and lung tissues compared to Dox” value in data set [7] is listed as “reduced”. In addition, the “content in tumor tissues relative to Dox” value in data set [7] (CT26 tumors) is “more than 10 fold”. The results for the “reduction of total WBC counts” value in [8] (4.94 μmol/kg) and in [8] (10-fold higher dose than 4.94 μmol/kg) were “no reductions” and “only a slight reduction”, respectively. Also, in the data set with cardiac myocytes (49.4 μmol/kg), the “histological evidence of cardiac toxicity” value is recorded as “no histological evidence of cardiac toxicity”. Also, the “apoptosis of cardiac myocytes (TUNEL)” value with cardiac myocytes was “not observed”. The LD50 in the data set “in vivo” (ip) and in “in vivo” (iv) was greater than 197 µmol/kg each time. For the same compound, the MTD in the data set “in vivo” (ip) and in the data set “in vivo” (iv) was greater than 197 µmol/kg in each case. Further, the LD50 at 5 days is greater than 197 µmol/kg in “in vivo” (ip, i.p. 5×) and 197 µmol/kg in the data set “in vivo” (iv, i.v. 5×). The MTD at 5 days was 98.7 µmol/kg in the data set “in vivo” (ip, i.p. 5×) and 74 µmol/kg in “in vivo” (iv, i.v. 5×).

For `COc1cccc2c1C(=O)c1c(O)c3c(c(O)c1C2=O)C[C@@](O)(C(=O)CO)C[C@@H]3O[C@H]1C[C@H](NC(=O)[C@H](CC(C)C)NC(=O)[C@H](CC(N)=O)NC(=O)[C@@H](NC(=O)CCNC(=O)CCC(=O)O)[C@@H](C)O)[C@H](O)[C@H](C)O1` [LEG-2, N-Succinyl-β-alanyl-L-threoinyl-L-Asparaginyl-L-Leucyl-Doxorubicin], in data set [5] (mice bearing CT26 tumors), the “in vivo tumoricidal activity” value was “demonstrable in vivo tumoricidal efficacy”. For the same compound, the cleavage by legumain result at legumain was “are cleaved by legumain”.
